This test has as its target HLA-A2 on HLA-A2 positive lymphocytes / PBMCs (human). Nature of the test: cell-based or functional assay.

Turning to “conjugate C (streptavidin-linked BB7.2 monoclonal antibody mixed with biotinylated HLA-G) (from UniProt P22629 37-163; P17693 25-299)”, the G-Body inhibitory effect on proliferation of PBMCs; CD3/CD28 beads; HLA-A2 positive donor C; Day 7 worked out at 70%, the G-Body inhibitory effect on proliferation of PBMCs; CD3/CD28 beads; HLA-A2 positive donor D; Day 7 came out at 50%, the G-Body inhibitory effect on proliferation of PBMCs; CD3/CD28 beads; HLA-A2 positive donor G; Day 3 turned out to be 40% and the G-Body inhibitory effect on proliferation of PBMCs; CD3/CD28 beads; HLA-A2 positive donor G; Day 7 was determined as 50%. The G-Body inhibitory effect on proliferation of PBMCs; CD3/CD28 beads; HLA-A2 positive donor J; Day 3 was determined as 50%, the G-Body inhibitory effect on proliferation of PBMCs; SEB; HLA-A2 positive donor C; Day 3 came to 60%, the G-Body inhibitory effect on proliferation of PBMCs; SEB; HLA-A2 positive donor J; Day 3 stood at 70% and the G-Body inhibitory effect on proliferation of PBMCs; SEB; HLA-A2 positive donor J; Day 7 was found to be 70%.

The values above are taken from patent US20180311373A1.
